# Laboratory results as given in the RNAGym collection of RNA variant scans (doi:10.7554/elife.90254).
# B1: LINE1-full (parent)
# chain: UACGUAGGUGGUUUUCCCCUGAUAGUGCUAAGGGGGCCUGGAAGUUUGGACUGGGCAGAGCUCAACACAGCGUGGCAAAGUGGCUGUGGCUAGACUGCCUCUCUGGAUUCCUCGUCACUCAGCAGGGCAUCUCUGAGAGAAAUGCC
# Variants of: B1
# Assay: self-cleavage, relative activity (ratio to wild type); higher = more cleavage; in vitro, sequencing; the parent is a self-cleaving ribozyme
row,Variant,self-cleavage
1,C16U A129G,1.25
2,U12A C113U,1.36
3,G7U G70A,0.2
4,A79U A107G,2.26
5,A67U C84U,0.02
6,A64G A129U,0.25
7,A129G U143C,1.59
8,G33C C71U,1.93
9,A78G A107U,1.26
10,A57U U102A,0.08
11,U26C G75U,0.57
12,A6G U134C,0.85
13,U9G U102A,1.44
14,U12G U143C,1.23
15,A65G U115C,0.05
16,G21U U134A,1.27
17,U13C G89A,0.04
18,G36C C146U,1.29
19,G33U U104A,0.93
20,U26C G35A,1.26
21,C95U A138U,0.2
22,U26C U73C,1.45
23,U39C A78G,0.95
24,G82U U134G,1.3

row,Variant,self-cleavage
1,U29A A124C,1.52
2,U39C A141U,2.2
3,U23C G55C,0.06
4,U20G C61U,0.09
5,A22U U130C,1.35
6,C84A U130C,0.15
7,U9A A136G,1.29
8,U12C U73A,1.75
9,A78G U119A,1.33
10,U23C A30U,1.15
11,A22U G49A,1.08
12,U13C G139U,1.19
13,G74A A136U,0.91
14,A64G,0.25
15,A30C A121G,2.42
16,U39A C66U,0.05
17,G105U A117G,1.74
18,U85C C113A,0.08
19,U5C C110A,1.19
20,C16U G32A,1
21,U13A A67U,0.07
22,G4A A43U,1.21
23,U96C G126A,0.15
24,G48A A94G,0.13

row,Variant,self-cleavage
1,C3U U12G,1.13
2,G8A A142G,1.45
3,U15A A24G,0.49
4,U15A A24U,1.12
5,U9A G126A,0.82
6,A92G U115A,0.12
7,G114U,1.4
8,U52C U115A,1.34
9,A42U C113A,0.98
10,G93A A94G,0.09
11,U47C U87A,0.12
12,A57U A117G,0.09
13,C63U U109A,0.12
14,U20A G114A,1.4
15,U13C U87G,0.21
16,A65G A92C,0
17,A64C A67U,0.11
18,A2G A78G,1.04
19,A31U U39C,0.73
20,G72A G83A,1.53
21,G4A G125A,0.86
22,A42G A79U,1.57
23,A57G A141G,0.72
24,A31G,1.11

row,Variant,self-cleavage
1,G33A U52A,0.53
2,U20A A79U,1.59
3,U73G A92G,0.36
4,U5C A94C,0
5,U12C U23C,1.34
6,C131A U134C,1.53
7,A6G U20G,1.34
8,A57C U119A,0.06
9,U9C U134A,1.19
10,G21U A42U,1.03
11,G105A,1.43
12,A77C A142G,1.34
13,U15C G83A,0.72
14,U109C U130A,1.24
15,U115C A121G,1.42
16,A50U A94U,0.27
17,C71A U96A,0.09
18,U115C U119C,2.04
19,A117G A121G,1.38
20,A22G C113U,0.92
21,A124G U134C,0.89
22,A78G U104A,1.25
23,U14C G34A,0.92
24,U29C U62C,0.15

row,Variant,self-cleavage
1,A22G G32U,0.6
2,A138C U143A,1.94
3,U96C C113A,0.05
4,A42G U96A,0.03
5,A121C A136G,1.72
6,U100C G126U,1.37
7,U20G A42G,0.67
8,U85C A121U,0.25
9,A65G C71U,0.03
10,U1C A117G,0.73
11,G7A,1.08
12,A43G G97A,0.04
13,A59C U73A,1.45
14,A64G G137A,0.21
15,U81C C90U,0.03
16,A79U U87A,0.05
17,A31C U100C,0.92
18,U39A U91A,0.56
19,G126A A141U,0.67
20,U1A A117G,1.37
21,U29G A57G,0.51
22,G34A U96G,0.09
23,U81A U115A,2.46
24,A78U G114A,1.75

row,Variant,self-cleavage
1,G114A U134C,1.13
2,U47A U104A,0.59
3,U5A U13C,0.99
4,U81C U115C,1.39
5,U13A G82U,0.65
6,A50U G70C,0
7,C37U A57U,0.05
8,U12C C101A,1.72
9,G58A U104A,0.03
10,A42C U73C,0.75
11,C37A G58A,0.03
12,C3A A64G,0
13,U9A A57G,0.98
14,U13C C116U,0.7
15,G74A A77G,1.35
16,U15A G135A,0.87
17,A65C U143C,0.06
18,U47C A138U,1.52
19,U91C U119C,1.4
20,A42C U100C,1.25
21,A64U U112A,0.47
22,G8C A129G,1.31
23,U39C U112A,1.45
24,A31U U112C,1.27

row,Variant,self-cleavage
1,U112A U143C,0.83
2,A77G G106A,2
3,A50G G80A,1.79
4,A22U A57G,0.84
5,U109C C133U,1.37
6,A43G A107U,0.7
7,A2G A140G,0.94
8,U12A A65C,0.14
9,U12A U26C,1.22
10,U14G A57G,2.19
11,U20C A124U,1.17
12,G72A U108C,1.54
13,G11A A142G,1.23
14,U29C A136U,1.54
15,U45A U46G,1.29
16,A42G G114A,1.48
17,U29C A67G,0.76
18,G58A U109A,0.04
19,A31G U132C,0.85
20,G7C A140G,1.37
21,A67U U96A,0.02
22,U15C G36C,1.31
23,A77G G80A,2.17
24,U29A U119C,0.97

row,Variant,self-cleavage
1,A42G U81A,2.11
2,C3U U45C,0.8
3,A31G A43G,0.98
4,G35U A69G,0.6
5,U112C C131U,1.87
6,C116U A140U,0.71
7,G74A U119A,0.84
8,U26G U87C,0.3
9,U20C U96A,0.12
10,A59G U73G,0.12
11,U104C G114A,1.59
12,A67U C133U,0.1
13,A79G C95U,0.08
14,U29C G36A,1.63
15,U9C A69G,0.83
16,C3U A77G,0.71
17,G34A A67C,0.03
18,A22U A140G,0.71
19,U13A A107G,1.11
20,U9C U39A,1.17
21,A30U U100A,0.9
22,A59G U108C,0.11
23,U15C C95U,0.28
24,U13C G54A,0.62

row,Variant,self-cleavage
1,A22G A59G,0.16
2,U73C G74A,2.38
3,C37U G53A,1.33
4,U12G G35A,0.89
5,U47A A94G,0.23
6,A92U A142G,0.66
7,U5C A117U,1.03
8,A43G U108C,1.56
9,C131A A142G,0.98
10,U12C A142C,1.38
11,U45C C84U,0.04
12,A42U C103A,0.91
13,U73G U81G,1.05
14,U47A U100C,1.81
15,U108C U119C,2
16,A59G G88A,0.06
17,A30C U46C,1.48
18,A31G A42G,0.96
19,U109C A121G,1.58
20,C19A U109A,1.58
21,A79G G93U,0.06
22,C76U U143C,2.01
23,G55C A77U,0.06
24,G34A A59G,0.07

row,Variant,self-cleavage
1,G70U U130C,0.08
2,U29C G53A,0.94
3,G35A A142G,1.14
4,A117U A138U,1.16
5,A67G U81C,0.35
6,U26A U73G,1.18
7,A107G U130C,2.26
8,U13A G125A,0.72
9,G41A U130A,1.57
10,A59G A117G,0.18
11,U130C A141C,2.91
12,A64U U115A,0.57
13,G72C U134A,0.97
14,A50G G127A,0.68
15,G70A U73A,0.09
16,G54U U62A,0.02
17,A92G A124U,0.09
18,A24G A141U,1.41
19,G32A C51U,0.88
20,G36A U115A,1.39
21,G74A C113A,0.85
22,U100A U143C,0.86
23,U1C A43C,0.37
24,U62C A64G,0.08

row,Variant,self-cleavage
1,A129G U134C,1.43
2,A43G U109C,1.92
3,U1C A141G,0.97
4,A65G U81A,0.06
5,U52G U143C,1.99
6,A107G C118U,1.56
7,C3U A129G,1.62
8,U12A G35C,1.52
9,U26C U46G,1.62
10,U130C C145U,1.46
11,U14A U119A,1.02
12,C61A A94G,0.04
13,G7A U100C,2.45
14,U15A A107G,0.81
15,A107C U119C,2.19
16,U81C U143A,1.22
17,U12C A140G,1.2
18,U15A A43G,0.97
19,G60A G127A,0.03
20,U5C C120U,1.26
21,C38U G74A,1.27
22,A6U A67U,0.22
23,A121U G125C,1.28
24,C120A G139U,1.59

row,Variant,self-cleavage
1,G21U C56G,0.02
2,A22U U108A,1.08
3,G10A A22C,1.54
4,U46C U102C,1.13
5,U108A U132G,2.7
6,U15C A59U,0.94
7,G36C U87A,0.14
8,G80C U96G,0.09
9,A6G U85C,0.2
10,A6G U85A,0
11,A2C U26C,1.05
12,A57G U87C,0.11
13,A94U A136U,0.29
14,G8A A50G,0.85
15,U45C A65G,0.04
16,U73C G114A,1.54
17,C101U U134C,1.45
18,U29C U81A,1.3
19,C99U U143A,0.39
20,C98U G105C,0.75
21,A107G C113U,1.39
22,C3A A138G,0.92
23,U26C A94G,0.39
24,U87C A107G,0.27

row,Variant,self-cleavage
1,U102A U130A,1.28
2,U102C G127A,1.7
3,G88U A140G,0.04
4,U26A A121U,1.11
5,U26C C38A,1.28
6,G40A,1.16
7,G32A A129U,1.15
8,A92U U143A,0.6
9,A30U U112C,1.08
10,C98A A140G,0.12
11,U26C C61U,0.04
12,A77U C90U,0.03
13,C16A G32A,0.77
14,U5A G40A,1.01
15,G7U U13A,0.71
16,G72A A121G,1.02
17,G86A A129G,0.05
18,G33A A142U,1.43
19,A69C U112C,0
20,A22G U112C,1.25
21,A57U A124U,0.09
22,U13C A24U,1.11
23,U9C A43G,1.12
24,U29A G44A,0.61

row,Variant,self-cleavage
1,A2C A65U,0.17
2,U100C U115C,2.98
3,U81A C120U,0.99
4,U9C U96C,0.14
5,G40A A129U,0.46
6,U46A C71A,0.25
7,G82U U102C,1.45
8,U102A A140U,1.42
9,C51U U73A,1.48
10,C16A A107G,0.87
11,U12C A30G,0.87
12,U46C C66U,0.02
13,A42G C131A,1.23
14,U46C A67U,0.12
15,G41A A43C,0.25
16,U46A G114A,1.08
17,G34A A78G,1.27
18,A30U A42G,0.99
19,U62C U108C,0.05
20,C19U U108C,1.26
21,U9A U45C,0.91
22,A77G U81C,2.1
